In patent US20150225704A1 (UNIVERSITY OF BRITISH COLUMBIA, published 2015):
Substitutions are numbered along the chain they refer to.

T1: FLAG-MKK7 wt (UniProt O14733 1-419, limits assumed)
T1 construct: Bought from Addgene; also called MKK7 wildtype; not shown: FLAG tag
T1 sequence (looked up): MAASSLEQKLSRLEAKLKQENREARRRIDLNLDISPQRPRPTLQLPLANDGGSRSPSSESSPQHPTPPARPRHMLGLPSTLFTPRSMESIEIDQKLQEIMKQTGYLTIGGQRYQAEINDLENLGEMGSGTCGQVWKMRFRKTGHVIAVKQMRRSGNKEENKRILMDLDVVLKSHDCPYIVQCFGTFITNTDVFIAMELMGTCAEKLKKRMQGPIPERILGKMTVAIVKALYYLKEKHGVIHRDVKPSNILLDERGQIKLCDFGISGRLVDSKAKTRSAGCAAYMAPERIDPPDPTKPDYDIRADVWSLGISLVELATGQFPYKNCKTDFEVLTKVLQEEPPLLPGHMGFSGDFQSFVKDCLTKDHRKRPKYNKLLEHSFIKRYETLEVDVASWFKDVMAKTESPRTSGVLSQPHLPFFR

B1: zD20 (palmitoyl acyl transferase) expressed in HEK293 cells (enzyme, UniProt Q5W0Z9 1-365, looked up)
chain: MAPWTLWRCCQRVVGWVPVLFITFVVVWSYYAYVVELCVFTIFGNEENGKTVVYLVAFHLFFVMFVWSYWMTIFTSPASPSKEFYLSNSEKERYEKEFSQERQQEILRRAARALPIYTTSASKTIRYCEKCQLIKPDRAHHCSACDSCILKMDHHCPWVNNCVGFSNYKFFLLFLLYSLLYCLFVAATVLEYFIKFWTNELTDTRAKFHVLFLFFVSAMFFISVLSLFSYHCWLVGKNRTTIESFRAPTFSYGPDGNGFSLGCSKNWRQVFGDEKKYWLLPIFSSLGDGCSFPTRLVGMDPEQASVTNQNEYARSSGSNQPFPIKPLSESKNRLLDSESQWLENGAEEGIVKSGTNNHVTVAIEN
notes: Immunoprecipitated like myc-zD17
B2: zD15 (palmitoyl acyl transferase) expressed in HEK293 cells (enzyme, UniProt Q96MV8 1-337, looked up)
chain: MRRGWKMALSGGLRCCRRVLSWVPVLVIVLVVLWSYYAYVFELCLVTVLSPAEKVIYLILYHAIFVFFTWTYWKSIFTLPQQPNQKFHLSYTDKERYENEERPEVQKQMLVDMAKKLPVYTRTGSGAVRFCDRCHLIKPDRCHHCSVCAMCVLKMDHHCPWVNNCIGFSNYKFFLQFLAYSVLYCLYIATTVFSYFIKYWRGELPSVRSKFHVLFLLFVACMFFVSLVILFGYHCWLVSRNKTTLEAFCTPVFTSGPEKNGFNLGFIKNIQQVFGDKKKFWLIPIGSSPGDGHSFPMRSMNESQNPLLANEETWEDNEDDNQDYPEGSSSLAVETET
notes: as for B1
B3: FLAG-MKK6 (enzyme, UniProt P52564 1-334, looked up)
chain: MSQSKGKKRNPGLKIPKEAFEQPQTSSTPPRDLDSKACISIGNQNFEVKADDLEPIMELGRGAYGVVEKMRHVPSGQIMAVKRIRATVNSQEQKRLLMDLDISMRTVDCPFTVTFYGALFREGDVWICMELMDTSLDKFYKQVIDKGQTIPEDILGKIAVSIVKALEHLHSKLSVIHRDVKPSNVLINALGQVKMCDFGISGYLVDSVAKTIDAGCKPYMAPERINPELNQKGYSVKSDIWSLGITMIELAILRFPYDSWGTPFQQLKQVVEEPSPQLPADKFSAEFVDFTSQCLKKNSKERPTYPELMQHPFFTLHESKGTDVASFVKLILGD
notes: Bought from Addgene; not shown: FLAG tag
B4: endogenous JNK1 of rat cortical neuronal cultures (enzyme, UniProt P49185 1-411, looked up)
chain: MSRSKRDNNFYSVEIADSTFTVLKRYQNLKPIGSGAQGIVCAAYDAILERNVAIKKLSRPFQNQTHAKRAYRELVLMKCVNHKNIIGLLNVFTPQKSLEEFQDVYIVMELMDANLCQVIQMELDHERMSYLLYQMLCGIKHLHSAGIIHRDLKPSNIVVKSDCTLKILDFGLARTAGTSFMMTPYVVTRYYRAPEVILGMGYKENVDLWSVGCIMGEMVCLKILFPGRDYIDQWNKVIEQLGTPCPEFMKKLQPTVRTYVENRPKYAGYSFEKLFPDVLFPADSEHNKLKASQARDLLSKMLVIDASKRISVDEALQHPYINVWYDPSEAEAPPPKIPDKQLDEREHTIEEWKELIYKEVMDLEERTKNGVIRGQPSPLGAAVINGSQHPVSSPSVNDMSSMSTDPTLASD
B5: endogenous JNK3 of rat cortical neuronal cultures and rat brain (enzyme, UniProt P49187 1-464, looked up)
chain: MSLHFLYYCSEPTLDVKIAFCQGFDKHVDVSSVVKHYNMSKSKVDNQFYSVEVGDSTFTVLKRYQNLKPIGSGAQGIVCAAYDAVLDRNVAIKKLSRPFQNQTHAKRAYRELVLMKCVNHKNIISLLNVFTPQKTLEEFQDVYLVMELMDANLCQVIQMELDHERMSYLLYQMLCGIKHLHSAGIIHRDLKPSNIVVKSDCTLKILDFGLARTAGTSFMMTPYVVTRYYRAPEVILGMGYKENVDIWSVGCIMGEMVRHKILFPGRDYIDQWNKVIEQLGTPCPEFMKKLQPTVRNYVENRPKYAGLTFPKLFPDSLFPADSEHNKLKASQARDLLSKMLVIDPAKRISVDDALQHPYINVWYDPAEVEAPPPQIYDKQLDEREHTIEEWKELIYKEVMNSEEKTKNGVVKGQPSPSGAAVNSSESLPPSSSVNDISSMSTDQTLASDTDSSLEASAGPLGCCR
B6: GFP-JNK3 (c-jun N-terminal kinase 3) expressed in HEK293 cells (enzyme, UniProt P53779 1-464, looked up)
chain: B5 chain with H27Q, S32Y, V33I, V34A
notes: not shown: GFP tag and linker of the gifted construct (Song et al. 2006)

Tests used:
[1] = molecular target: B6; assay: co-immunoprecipitation, HEK293 cells
Procedure: (§1) For co-immunoprecipitation, cultured cells were washed with ice-cold PBS followed by incubation with 0.5 ml Gentle Lysis Buffer (GLB) containing 25 mM Tris-HCl (pH 7.4), 2 mM EDTA, 1 mM EGTA, 10 mM NaCl, 0.5% Triton X-100 and 10% Glycerol supplemented with the Complete Protease Inhibitor Tablets (Roche Applied Science™, Indianapolis, Ind., USA) and 1 mM PMSF. Total protein concentration was determined with the BioRad™ Protein Assay kit. Lysates were first precleaned by incubating with Protein A-Sepharose beads (Roche Applied Science™) for 1 h at 4° C., followed by incubation with indicated antibodies (>16 h at 4° C.) and protein A Sepharose bead (2 h at 4° C.). Lysates of rat brain tissues were precleaned with IgG and protein A-beads. […] The relative intensities of the bands on immunoblots were analyzed and quantified using Image J™ (NIH).

[2] = molecular target: T2, myc-tagged full-length palmitoyl acyl transferase zinc-finger DHHC type containing 17 (zD17) (UniProt Q8IUH5 1-632); assay: co-immunoprecipitation, HEK293 cells
T2 construct: range 1-632; Expressed in HEK293 cells (myc-zD17) or purified from E. coli as GST-myc-zD17 and freed of GST with thrombin; also called myc-zD17; zD17 wildtype
Procedure: as §1

[3] = molecular target: T3, endogenous zD17 of rat cortical neuronal cultures and rat brain (rat, UniProt E9PTT0 1-622); assay: co-immunoprecipitation, neuronal cultures treated with glutamate
T3 construct: Co-immunoprecipitated from lysates of Wistar rat cortical cultures or Sprague-Dawley rat brain

[4] = molecular target: T3, endogenous zD17 of rat cortical …; assay: co-immunoprecipitation, neuronal cultures treated with NMDA
[5] = molecular target: T3, endogenous zD17 of rat cortical …; assay: co-immunoprecipitation, neuronal cultures treated with TNF-α (50 ng/ml, 6 h)
Procedure: as §1

[6] = molecular target: T3, endogenous zD17 of rat cortical …; assay: co-immunoprecipitation, neuronal cultures treated with IL-1β (10 ng/ml, 16 h)
Procedure: as §1

FLAG-MKK7 wt = molecular target: T1, FLAG-MKK7 wt; assay: co-immunoprecipitation, with against without zD17
Procedure: as §1

T3 sequence (E9PTT0 whole entry): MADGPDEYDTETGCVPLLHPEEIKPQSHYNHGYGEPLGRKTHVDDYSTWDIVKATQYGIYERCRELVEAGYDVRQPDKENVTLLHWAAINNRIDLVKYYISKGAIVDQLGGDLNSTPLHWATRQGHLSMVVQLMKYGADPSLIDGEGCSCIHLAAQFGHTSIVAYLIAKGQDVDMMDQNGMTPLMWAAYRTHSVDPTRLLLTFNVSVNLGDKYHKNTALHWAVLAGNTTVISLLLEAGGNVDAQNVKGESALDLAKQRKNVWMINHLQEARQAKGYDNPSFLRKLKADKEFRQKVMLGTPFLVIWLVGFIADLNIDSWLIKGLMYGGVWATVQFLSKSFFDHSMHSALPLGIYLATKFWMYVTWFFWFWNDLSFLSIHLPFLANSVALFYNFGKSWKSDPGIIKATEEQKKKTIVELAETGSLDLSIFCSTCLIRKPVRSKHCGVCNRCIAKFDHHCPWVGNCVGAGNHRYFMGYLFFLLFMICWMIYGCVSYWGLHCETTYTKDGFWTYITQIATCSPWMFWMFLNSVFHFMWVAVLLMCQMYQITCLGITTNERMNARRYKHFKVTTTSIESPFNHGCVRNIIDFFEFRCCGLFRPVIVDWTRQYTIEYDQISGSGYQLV
T2 sequence (Q8IUH5 whole entry): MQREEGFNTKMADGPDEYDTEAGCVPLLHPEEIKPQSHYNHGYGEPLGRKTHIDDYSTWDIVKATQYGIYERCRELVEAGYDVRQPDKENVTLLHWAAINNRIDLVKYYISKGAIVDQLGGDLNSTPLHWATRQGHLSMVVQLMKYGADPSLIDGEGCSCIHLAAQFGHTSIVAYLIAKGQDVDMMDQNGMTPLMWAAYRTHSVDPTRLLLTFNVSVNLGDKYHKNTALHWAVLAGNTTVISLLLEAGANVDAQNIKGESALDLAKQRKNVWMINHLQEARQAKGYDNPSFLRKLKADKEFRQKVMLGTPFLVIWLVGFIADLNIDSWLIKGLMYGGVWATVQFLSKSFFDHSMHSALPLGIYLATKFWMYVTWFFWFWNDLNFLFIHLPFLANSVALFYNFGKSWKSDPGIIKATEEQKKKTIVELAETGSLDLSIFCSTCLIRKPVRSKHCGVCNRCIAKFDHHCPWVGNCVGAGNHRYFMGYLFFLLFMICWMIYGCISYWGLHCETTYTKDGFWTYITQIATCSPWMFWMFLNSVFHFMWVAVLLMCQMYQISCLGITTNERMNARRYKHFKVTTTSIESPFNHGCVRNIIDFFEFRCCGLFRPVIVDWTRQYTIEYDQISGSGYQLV

Binder: B1
binding result [1]: no binding

Binder: B2
binding result [1]: no binding

Binder: B3
binding result [2]: no binding

Binder: B4
fold increase of zD17 interaction compared with control [3]: 1.4 fold

Binder: B5
fold increase of zD17 interaction compared with control [4]: 2.5 fold
fold increase of zD17 interaction compared with control [3]: 2.6 fold
fold increase of zD17-JNK3 interaction against control [5]: 1.53 fold
fold increase of zD17-JNK3 interaction against control [6]: 1.88 fold

Binder: B6
fold enhancement of the JNK3-MKK7 association in the presence of zD17 (FLAG-MKK7 wt): 2.41 fold
